The values that follow come from patent publication US20190367619A1 (ARGENX, published 2019).

Sequences and labels used below:
B1: 8H11 Fab (Fab, V domains shown)
VH: ELQLVESGGGLVQPGGSLRLSCAASGFTFSTNYMNWVRQAPGKGLEWVSGITSGGGRTYYADSVKGRFTISRDNAKNTLYLQMNSLKPEDTALYYCARTDHAWLDAWGQGTLVTVSS
VL: QAGLTQPPSVSGTLGKTVTISCAGTSSDVGYGNYVSWYQQLPGTAPKLLIYAVSTRASGIPDRFSGSKSGNTASLTISGLLSEDEADYYCASYRSSNNYVFGGGTKLTVL
notes: Fab with human CH1 (including part of the hinge region) and human lambda constant domain; also called 8H11 hFab
B2: 7B07 Fab (Fab, V domains shown)
VH: QVQLVESGGGLVQPGGSLRLSCAASGFTFRSYDMSWVRQAPGKGPEWVSAIKNGGGITYYADSVKGRFTISRDNAKNTLYLQMNSLKPEDTAVYYCATTHGIGTLGFGSWGQGTQVTVSS
VL: SYELTQSASVSVALTQTAKITCDGNNIGSKSAQWYQQKPGQAPALVIYADEYRPEGIPERFSGSNSGNTATLIISGAQAEDEADYYCQVWDGSAAVFGRGTHLTVL
notes: Fab with human CH1 (including part of the hinge region) and human lambda constant domain; also called 7B7; 7B07 hFab
B3: 10A06 Fab (Fab, V domains shown)
VH: QVQLVESGGGLVQPGGSLRLSCAASGFTFGNYDMSWVRQAPGKGPEWVSDINSGGGSTYYADSVKGRFTISRDNAKNSLLLQMNSLKPEDTAVYYCATGYTGYYYWGQGTQVTVSS
VL: QTVVTQEPSLSVSPGGTVTLTCGLSSGSVTSSNYPAWYQQTPGQAPRALIYSINSRHSGVPDRFSGSISGNKAALTITGAQAEDEADYYCTLYMGTGSNNVVFGGGTHLTVL
notes: Fab with human CH1 (including part of the hinge region) and human lambda constant domain; also called 10A06 hFab
B4: 2C07 scFv-human Fc (Fc fusion)
scFv: ELQLVESGGGLVQPGGSLRLSCAASGFTFSSYAMSWVRQAPGKGLEWVSNINSGGGSTGYADSVKGRFTISRDNAKNTLYLQMNSLKPEDMAVYYCAKYLRTYYPNAAFGMDYWGKGTLVTVSSGGGGSGGGGSGGGGSQAVLTQPSAVSVSLGQTARITCQGGNFGRYYASWYQQKPGQAPVLVIYRDSERPSGIPERFSGSSSGDTATLTISGAQAEDEADYYCQSGRSSDNAVFGGGTHLTGL
notes: about 100 kDa on SDS-PAGE; also called 2C07 ScFv-hFc; not shown: CH2-CH3 constant domains of human IgG1 (vector pUPEX50)
B5: 4B10 scFv-human Fc (Fc fusion)
scFv: QLQLVESGGGLVQPGGSLRLSCAASGFTFSNYWMYWVRQAPGKGLEWVSAIDVGGGTTDYAGSVKGRFTISRDNTKSTVYLQMNTLKPEDTALYYCLRGGSYYGGMDYWGKGTLVTVSSGGGGSGGGGSGGGGSQSALTQPSAVSVSLGQTARITCQGAKLGRYYGIWYQQKPGQAPVQVIYGDSNRPSGIPERFSGSSSGGTATLTISGAQAEDEADYYCQSYESSTSPVFGGGTHLTVL
notes: about 100 kDa on SDS-PAGE; also called 4B10 ScFv-hFc; not shown: CH2-CH3 constant domains of human IgG1 (vector pUPEX50)
B6: 2E11 scFv-human Fc (Fc fusion)
scFv: EVQLVESGGGLVQPGGSLRLSCAASGFTFSSYAMSWVRQAPGKGLEWVSPINSGSDSASYVDSVKGRFTISRDNAKNTLYLQMNSLKPEDTAVYYCAKARTSVVAGGMDYWGKGTLVTVSSGGGGSGGGGSGGGGSQSALTQPSAVSVSLGQTARITCQGGKFGSYYVSWYQQKPGQAPVMVIYKDNERPSGIPERFSGSSSGSTSTLTISGAQAEDEGTYYCQSGSSSDNIVFGGGTELTVF
notes: about 100 kDa on SDS-PAGE; also called 2E11 ScFv-hFc; not shown: CH2-CH3 constant domains of human IgG1 (vector pUPEX50)
B7: 4G05 scFv-human Fc (Fc fusion)
scFv: QLQVVESGGGLVQTGGSLTLSCTTSGFTFSRYWMIWVRQAPGKGLEWVSSIYNDGGNTYYADSVKGRFTISRDNSENTLYLQMNSLKSEDTAVYYCAKLKAAYYGMDYWGKGTLVTVSSGGGGSGGGGSGGGGSSSALTQPSAVSVSLGQTARITCQGANLGRYYGIWYQQKPGQAPVQVIYGDSNRPSGIPERFSGSSSGGTATLTISGAQAEDEADYYCQSYESSTSPVFGGGTHLTVL
notes: about 100 kDa on SDS-PAGE; also called 4G05 ScFv-hFc; not shown: CH2-CH3 constant domains of human IgG1 (vector pUPEX50)
B8: 4H10 scFv-human Fc (Fc fusion)
scFv: QVQLVESGGGLVQPGGSLRLSCAASGFTFDDYAMSWVRQAPGKGLEWVSAISWNGGSTYYAESMKGRFTISRDNAKNTLYLQMNSLKSEDAAVYYCAKDLSASGSYYHTFGSWGQGTQVTVSSGGGGSGGGGSGGGGSQAGLTQPPSVAGTLGKTVTISCAGTSSDVGYGDYVSWYQHIPGTAPKLLIYKVKTRASGIPDRFSGSKSGNTASLTISGLQSGDESDYYCASYKNGGTAVFGGGTHLTVL
notes: about 100 kDa on SDS-PAGE; also called 4H10 ScFv-hFc; not shown: CH2-CH3 constant domains of human IgG1 (vector pUPEX50)
B9: 2B11 scFv-human Fc (Fc fusion)
scFv: QVQLQESGPGLVKPSQTLSLTCTVSGGSITTNYYYWSWIRQPPGKGLEWMGAIAYSGSTYYSPSLKSRTSISRDTSKNQFTLQLSSVTPEDTAVYYCARAPYGISREYDYWGQGTQVTVSSGGGGSGGGGSGGGGSHSAVTQPSAVSVSLGQTARITCQGGKFGRYYASWYQQKPGQAPVLVIYKDSERPSGIPERFSGSSSGDTATLSISGAQAEDEADYFCQSGRSSDNAVFGGGTHLTVL
notes: about 100 kDa on SDS-PAGE; also called 2B11 ScFv-hFc; not shown: CH2-CH3 constant domains of human IgG1 (vector pUPEX50)
B10: 6F05 scFv-human Fc (Fc fusion)
scFv: QLQLVESGGGLVQPGGSLRLSCAASGFTFSSYAMSWVRQAPGKGLEWVSAINSGGGSTSYADSVKGRFTISRDNAKNTLYLQMNSLKPEDTAVYYCATPGDRLWYYRYDYWGQGTQVTVSSGGGGSGGGGSGGGGSQAGLTQPPSVSGTLGKAVTISCAGTSSDIGYGNYVSWYQQLPGTAPKLLIYKVSRRASGVPDRFSGSKSGNTASLSISGLQSEDEADYYCASYRYRNNVVFGGGTHLTVL
notes: Positive control from the first panel; also called 6F5; not shown: CH2-CH3 constant domains of human IgG1 (pUPEX50 scFv-Fc fusion vector)

Bounds are passed on as bounds.

The target in the first experiment is T1, recombinant human galectin-10, TEV-cleaved (human, UniProt Q05315 1-142).
T1 sequence: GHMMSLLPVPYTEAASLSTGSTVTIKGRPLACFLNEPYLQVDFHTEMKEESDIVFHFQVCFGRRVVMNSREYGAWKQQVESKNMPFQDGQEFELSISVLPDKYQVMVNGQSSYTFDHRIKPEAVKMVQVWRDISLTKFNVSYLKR
The experiment in a line: cell-based or functional assay.
On to B1, for which the “50% crystal dissolution (min), 50 uM” value amounted to 48.5 min and the “90% crystal dissolution (min), 50 uM” value was more than 120 min.
Regarding B2, the “50% crystal dissolution (min), 50 uM” value amounted to 15.1 min and the “90% crystal dissolution (min), 50 uM” value amounted to 54.1 min.
Regarding B3, the “50% crystal dissolution (min), 50 uM” value amounted to 49.1 min and the “90% crystal dissolution (min), 50 uM” value is more than 120 min.

A further experiment has as its target T2, human galectin-10-His (recombinant human galectin-10 with TEV-cleavable N-terminal His-tag) (human).
T2 construct: SEC-MALLS: dimer in solution; also called Gal10-His; humanGal10-His
T2 chain: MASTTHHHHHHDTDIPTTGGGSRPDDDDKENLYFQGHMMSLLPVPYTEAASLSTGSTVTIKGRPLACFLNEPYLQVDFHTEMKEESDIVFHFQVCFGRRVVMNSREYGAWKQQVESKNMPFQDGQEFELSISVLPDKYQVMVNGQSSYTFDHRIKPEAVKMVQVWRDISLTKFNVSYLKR
Description: ELISA, scFv-hFc on coated galectin-10-His (0.2 ug/mL). How it is done: In a similar setup to that used during the initial screening, the relative binding properties of the 12 scFv-human Fc clones were analyzed by ELISA. Briefly, a Maxisorp plate was coated with galectin-10-His at 0.2 μg/mL and blocked with casein, before being incubated with a serial dilution of the scFv-human Fc fusion molecules. After several washing steps, detection of the bound scFv-human Fc was carried out with an anti-human Fc-HRP antibody. Absorbance was measured at 450 nm (reference at 620 nm) with Tecan instrument. Finally, the raw data (OD values) were plotted on GraphPad Prism 7.01. The EC50 value of each compound was calculated with a non-linear regression (log(agonist) vs. response Variable slope (four parameters)).
In the case of B4, the “Bmax (OD values)” value worked out at 2.89 OD and the EC50 was determined as 0.05 nM.
For the molecule B5, the “Bmax (OD values)” value worked out at 1.28 OD and the EC50 was 0.08 nM.
As for B6, the “Bmax (OD values)” value stood at 1.43 OD and the EC50 is 0.14 nM.
Take B7: the “Bmax (OD values)” value was found to be 3.03 OD and the EC50 was found to be 0.09 nM.
As to B8, the “Bmax (OD values)” value was 1.3 OD and the EC50 was 0.2 nM.
For B9, the “Bmax (OD values)” value is 2.43 OD and the EC50 came out at 0.08 nM.

Another experiment concerns the target T3, human galectin-10-His (human).
T3 construct: The last M of the tag may be Met1 of galectin-10; also called humanGal10-His; hGal10
T3 chain: T2 chain
Description: ELISA, coated antigen 0.2 ug/mL. How it is done: In a similar setup to that used during the initial screening, the relative binding properties of the 11 new scFv-human Fc clones were analyzed by ELISA. Briefly, a Maxisorp plate was coated overnight with human or cynomolgus WGS or YRT isoforms of galectin-10-His at 0.2 μg/mL and blocked with PBS 1% casein, before being incubated with a serial dilution of the scFv-human Fc fusion molecules (from 100 nM, dilution 1/5, 8 points of dilutions). After several washing steps, detection of the bound scFv-human Fc was carried out with an anti-human Fc-HRP antibody (Jackson ImmunoResearch, Catalog 109-035-008). Absorbance was measured at 450 nm (reference at 620 nm) with Tecan instrument. Finally, the raw data (OD values) were plotted on GraphPad Prism 7.01. The EC50 values of each clone, calculated with a non-linear regression (log(agonist) vs. response Variable slope (four parameters)) are reported in Table 19 below. As a positive control, clone 6F05 from the previous galectin-10 antibody panel was included.
On to B10, for which the Bmax is 2.4 OD and the EC50 came to 0.02 nM.

The target of another experiment is T2, human galectin-10-His (recombinant …). The experiment in a line: SPR Biacore T3000, scFv-hFc captured by anti-human Fc, galectin-10-His as analyte. How it is done: In order to determine the binding properties (on-rate/off-rate) of the scFv-human Fc panel, their binding capacity to galectin-10 was analyzed on Biacore T3000. For this purpose, a capture approach was set up. A CM5 Chip was coated with polyclonal anti-human Fc at 8000 RU, then a fixed concentration of the scFv-human Fc panel (1.5 μg/mL), diluted in HBS-EP pH7.4, were captured to reach a binding signal around 150 RU. Finally, a serial dilution of galectin-10-His (serial dilution, 1 over 2 from 5 μg/mL, 6 points of dilution) diluted in HBS-EP pH7.4 was injected. Raw data were analyzed via BIA evaluation software with a blank subtraction (4-3). The kd/KD and Rmax of each scFv-human Fc for galectin-10-His was determined using the Fit Kinetics simultaneous ka/kd/Binding with mass transfer/Local Rmax on BIA evaluation software.
With B4, the equilibrium dissociation constant (Kd) is 0.677 nM and the koff turned out to be 0.000259 s⁻¹.
As for B5, the Kd amounted to 1.94 nM and the koff was 0.0128 s⁻¹.
B6: the Kd was determined as 1.16 nM and the koff came out at 0.0111 s⁻¹.
The matching figures for B7: 0.911 nM and 0.0437 s⁻¹.
As for B8, the Kd turned out to be 1.55 nM and the koff was 0.00277 s⁻¹.
For B9, the Kd turned out to be 0.875 nM and the koff amounted to 0.018 s⁻¹.

The target in a further experiment is T3, human galectin-10-His. The experiment in a line: ELISA, galectin-10-His coated at 1 ug/mL, Fab. The protocol: The binding capacity of the lead anti-galectin-10 Fabs was tested by binding ELISA. Briefly, a Maxisorp plate was coated overnight with 1 μg/mL of human galectin-10-His. Then a serial dilution of each clone (from 4 μM, dilution 1/4, 12 points of dilutions) was incubated on coated galectin-10. After several washing steps, detection of the bound Fab was carried out with an anti-human IgG Fab specific-peroxidase. Absorbance was measured at 450 nm (reference at 620 nm) with Tecan instrument.
For B1, the Bmax is 0.95 OD and it took 24.3 nM to reach a half-maximal effect (EC50).
Turning to B2, the Bmax was 0.65 OD and the EC50 turned out to be 24.4 nM.
In turn, B3 showed a Bmax of 0.36 OD and an EC50 of 89.5 nM.

A further experiment concerns the target T4, TEV-cleaved wild-type recombinant human galectin-10 (soluble, in Fab complexes, or as recombinant galectin-10 … (human, UniProt Q05315 1-142)).
T4 sequence: T1 sequence
The experiment in a line: cell-based or functional assay.
On to B4, for which the “100% Solubilization of CLC (Conc uM)” value is 6.86 µM.
In the case of B5, the “100% Solubilization of CLC (Conc uM)” value was determined as 6.14 µM.
For the molecule B6, the “100% Solubilization of CLC (Conc uM)” value was found to be 4.36 µM.
On to B7, for which the “100% Solubilization of CLC (Conc uM)” value was 4.36 µM.
On to B8, for which the “100% Solubilization of CLC (Conc uM)” value is 6 µM.
As to B9, the “100% Solubilization of CLC (Conc uM)” value came to 5.04 µM.
